Assay results reported in paper PMC8209278 (iScience, 2021).

Key:
[1] = biological target: Purified recombinant viral NP protein (influenza virus A/Puerto Rico/8/34 …, UniProt P03466 1-498); experiment: pull-down
[2] = biological target: Purified recombinant viral PB2 protein (influenza virus A/Puerto Rico/8/34 …, UniProt P03428 1-759); experiment: pull-down

Chain of Purified recombinant viral NP protein (P03466 whole entry): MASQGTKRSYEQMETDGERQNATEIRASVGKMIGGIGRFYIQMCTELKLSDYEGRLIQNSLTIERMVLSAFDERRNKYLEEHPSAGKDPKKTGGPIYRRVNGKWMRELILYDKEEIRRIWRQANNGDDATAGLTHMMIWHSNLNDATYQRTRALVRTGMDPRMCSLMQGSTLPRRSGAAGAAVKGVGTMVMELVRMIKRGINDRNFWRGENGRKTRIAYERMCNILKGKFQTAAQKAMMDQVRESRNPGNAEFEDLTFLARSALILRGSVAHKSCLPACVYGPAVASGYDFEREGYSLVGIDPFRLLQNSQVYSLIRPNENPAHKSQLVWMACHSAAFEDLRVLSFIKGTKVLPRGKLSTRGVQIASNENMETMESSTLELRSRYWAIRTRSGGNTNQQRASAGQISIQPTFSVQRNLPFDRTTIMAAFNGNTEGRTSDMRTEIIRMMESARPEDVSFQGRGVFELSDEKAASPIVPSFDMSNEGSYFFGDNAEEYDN

B1: GST-fused full length Suv4-20h2 (enzyme)
chain: not shown
binding result [1]: binds | binding result [2]: binds
